B1: His6-SUMO-HilE (natural protein)
chain: MDAIYLKLDGIEGESRIKGFENQIKLIAYNHNPTKRESGEARGTYIGGLTLTKPVDLATPGLYEHYCNGKTVKEGVLTLCRRDKGAMLPFIIYTLTNVRISRMSNHGDAEGSATETVDLVYSHIRWDIPALASKSKTRRPLHRQALWR
modifications: RED-tris-NTA 2nd Generation dye bound to the His6 tag

Legend:
Test in all cases: MST
HilD K279M = molecular target: HilD K279M
HilD S216I/S218D = molecular target: HilD S216I/S218D
His6-SUMO-HilE = molecular target: B1
[1] = molecular target: EYFP-HilD E102A/K264A/R267A

B1
Kd (HilD K279M): 2120 nM
Kd (HilD S216I/S218D): 1160 nM

B2: HilD (full-length, unfused) (natural protein)
chain: MENVTFVSNSHQRPAADNLQKLKSLLTNTRQQIKSQTQQVTIKNLYVSSFTLVCFRSGKLTISNNHDTIYCDEPGMLVLKKEQVVNVTLEEVNGHMDFDILEIPTQRLGALYALIPNEQQTKMAVPTEKAQKIFYTPDFPARREVFEHLKTAFSCTKDTSKGCSNCNNKSCIENEELIPYFLLFLLTAFLRLPESYEIILSSAQITLKERVYNIISSSPSRQWKLTDVADHIFMSTSTLKRKLAEEGTSFSDIYLSARMNQAAKLLRIGNHNVNAVALKCGYDSTSYFIQCFKKYFKTTPSTFIKMANH
Kd (His6-SUMO-HilE): 1890 nM

B3: HilE (natural protein)
chain: MDAIYLKLDGIEGESRIKGFENQIKLIAYNHNPTKRESGEARGTYIGGLTLTKPVDLATPGLYEHYCNGKTVKEGVLTLCRRDKGAMLPFIIYTLTNVRISRMSNHGDAEGSATETVDLVYSHIRWDIPALASKSKTRRPLHRQALWR
Kd [1]: 1680 nM
